Reference: patent US20230073034A1 (APRILBIO, published 2023)

T1: cell membrane CD40L expressed on D1.1 cells (UniProt P29965 1-261, limits assumed)
T1 sequence (looked up): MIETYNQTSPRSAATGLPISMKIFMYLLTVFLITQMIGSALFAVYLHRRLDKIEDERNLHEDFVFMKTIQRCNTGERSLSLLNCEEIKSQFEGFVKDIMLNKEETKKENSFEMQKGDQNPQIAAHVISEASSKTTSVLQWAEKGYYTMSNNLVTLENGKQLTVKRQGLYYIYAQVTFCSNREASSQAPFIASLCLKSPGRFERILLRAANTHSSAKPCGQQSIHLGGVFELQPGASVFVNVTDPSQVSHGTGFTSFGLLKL

T2: recombinant human CD40L (rhCD40L-his) (human, UniProt P29965 113-261, limits assumed)
T2 construct: Soluble recombinant form made by the applicant; also called rhCD40L antigen
T2 sequence (looked up): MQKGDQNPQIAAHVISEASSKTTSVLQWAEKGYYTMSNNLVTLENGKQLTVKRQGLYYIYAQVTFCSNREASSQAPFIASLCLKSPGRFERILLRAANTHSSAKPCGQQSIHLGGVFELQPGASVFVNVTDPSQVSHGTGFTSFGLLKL


What was measured:
[1] = target: T3, human serum albumin (HSA) (human, UniProt P02768 25-609); experiment: ELISA, HSA coated at 1 µg/ml, HRP goat anti-human Fd detection
Procedure: After blocking for 2 hours, washing was performed by repeatedly performing a process of completely removing the added buffer, adding each 300 μl of a buffer (PBS-T) containing 0.1% tween-20 PBS (pH 7.4), and then removing the buffer 3 times in total. After removing water remaining after the washing, the respective antibodies were serially diluted 10 folds at concentrations decreasing from 100 nM to 1.0×10⁻⁴ nM in a PBS pH 7.4 buffer (0.3% PBA) containing 0.3% bovine serum albumin and 0.1% tween-20, and each 100 μl of the diluted antibody samples were added to each well to be allowed to react at room temperature for 2 hours. After washing in the same manner as described above, HRP-conjugated goat anti-human Fd antibodies (Southern Biotechnology, Birmingham, Ala.) were diluted with a 0.3% PBA buffer in 1:4,000, and each 100 μl of the diluted antibody samples were added to each well to then be allowed to react at room temperature for 1 hour. To assess antigen-specific binding of the antibodies reacting after the washing, a TMB substrate (BD Bioscience, Franklin Lakes, N.J.) was added and reacted, and the absorbance was measured using a microplate spectrophotometer at A450 nm.
(§1) HRP-conjugated goat anti-human Fd antibodies were used as secondary antibodies.

[2] = target: T4, recombinant human TNF-α protein (human, UniProt P01375 77-233); experiment: ELISA, recombinant human TNF-α coated at 1 µg/ml, HRP goat anti-human Fd detection
T4 construct: also called soluble TNF-α; recombinant soluble TNF-α protein
T4 sequence (P01375 77-233 limits assumed): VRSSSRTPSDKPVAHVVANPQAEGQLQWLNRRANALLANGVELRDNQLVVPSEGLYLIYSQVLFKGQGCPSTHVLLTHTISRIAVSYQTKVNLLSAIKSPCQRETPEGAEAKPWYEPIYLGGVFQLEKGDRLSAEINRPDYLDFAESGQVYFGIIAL
Procedure: After washing in the same manner as described above, HRP-conjugated goat anti-human Fd antibodies (Southern Biotechnology, Birmingham, Ala.) were diluted with a 0.3% PBA buffer in 1:4,000, and each 100 μl of the diluted antibody samples were added to each well to then be allowed to react at room temperature for 1 hour. To assess antigen-specific binding of the antibodies reacting after the washing, a TMB substrate (BD Bioscience, Franklin Lakes, N.J.) was added and reacted, and the absorbance was measured using a microplate spectrophotometer at A450 nm.
as §1

[3] = target: T4, recombinant human TNF-α protein; experiment: cell-based or functional assay
[4] = target: T1, cell membrane CD40L expressed on D1.1 …; experiment: cell-based or functional assay
[5] = target: T2, recombinant human CD40L (rhCD40L-his); experiment: ELISA, CD40L coated at 1 µg/ml
[6] = target: T4, recombinant human TNF-α protein; experiment: BLI (Octet RED), antigen on AR2G biosensor
[7] = target: T3, human serum albumin (HSA); experiment: BLI (Octet RED), antigen on AR2G biosensor
[8] = target: T2, recombinant human CD40L (rhCD40L-his); experiment: BLI (Octet RED), antigen on AR2G biosensor
[9] = target: T2, recombinant human CD40L (rhCD40L-his); experiment: ELISA, recombinant human CD40L coated at 1 µg/ml, HRP goat anti-human Fd detection

EC50 (read off the curve) [1]	binding result [2]	IC50, SEAP response of HEK-Blue reporter cells + soluble TNF-α 10 ng/ml (FIG. 22B) [3]	percent inhibition, SEAP response of HEK-Blue reporter cells + D1.1 cells + soluble TNF-α together (FIG. 22C) [3]	percent inhibition, SEAP response of HEK-Blue reporter cells + D1.1 cells + soluble TNF-α together (FIG. 22C) [4]	fold lower binding capacity than anti-human CD40L IgG1 (ruplizumab) [5]	Kd [6]	koff [6]	kon [6]	Kd [7]	koff [7]	kon [7]	Kd [8]	koff [8]	kon [8]	EC50 (read off the curve) [9]	EC50 (read off the curve) [2]	Binder	IC50, inhibition of TNF-α mediated cytotoxicity on L929 mouse cells, with HSA (FIG. 21) [3]
~0.3 nM	no binding (tested: 100 nM)	–	–	–	–	–	–	–	–	–	–	–	–	–	–	–	SL335 Fab (anti-human serum albumin Fab) (Fab, V domains shown, also called anti-HSA Fab (SL335)) VH: QVQLVQSGGGPVKPGGSLRLSCAASGFMFRAYSMNWVRQAPGKGLEWVSSISSSGRYIHYADSVKGRFTISRDNAKNSLYLQMNSLRAEDTAVYYCARETVMAGKALDYWGQGTLVTVSS VL: DIVLTQSPGTLSLSPGETATLSCRASQSVGSNLAWYQQKPGQAPRLLIYGASTGATGVPARFSGSRSGTDFTLTITSLQPEDFATYYCQQYYSFLAKTFGQGTQLEIKR	–
~0.5 nM	–	3.05 nM	100%	100%	~1.5 fold	0.164 nM	3.82e-05 s⁻¹	230000 M⁻¹ s⁻¹	0.765 nM	0.00042 s⁻¹	549000 M⁻¹ s⁻¹	0.192 nM	0.000113 s⁻¹	590000 M⁻¹ s⁻¹	~0.2 nM	~1 nM	APB-B1a, (anti-CD40L scFv)2-(anti-HSA SL335 Fab)-(anti-TNF-α Fv) (bispecific antibody) chain 1: DIVLTQSPATLSVSPGERATISCRASQRVSSSTYSYMHWYQQKPGQPPKLLIKYASNLESGVPARFSGSGSGTDFTLTISSVEPEDFATYYCQHSWEIPPTFGGGTKLEIKRGGGGSGGGGSGGGGSQVQLVQSGAEVVKPGASVKLSCKASGYIFTSYYMYWVKQAPGQGLEWIGEINPSNGDTNFNEKFKSKATLTVDKSASTAYMELSSLRSEDTAVYYCTRSDGRNDMDSWGQGTLVTVSSGGGGSGGGGSGGGGSQVQLVQSGGGPVKPGGSLRLSCAASGFMFRAYSMNWVRQAPGKGLEWVSSISSSGRYIHYADSVKGRFTISRDNAKNSLYLQMNSLRAEDTAVYYCARETVMAGKALDYWGQGTLVTVSSASTKGPSVFPLAPSSKSTSEGTAALGCLVKDYFPEPVTVSWNSGALTSGVHTFPAVLQSSGLYSLSSVVTVPSSSLGTQTYICNVNHKPSNTKVDKKVEPKSSGGGGSGGGGSGGGGSEVQLVESGGGLVQPGGSLRLSCAASGYVFTDYGMNWVRQAPGKGLEWMGWINTYIGEPIYADSVKGRFTFSLDTSKSTAYLQMNSLRAEDTAVYYCARGYRSYAMDYWGQGTLVTVSS chain 2: DIVLTQSPATLSVSPGERATISCRASQRVSSSTYSYMHWYQQKPGQPPKLLIKYASNLESGVPARFSGSGSGTDFTLTISSVEPEDFATYYCQHSWEIPPTFGGGTKLEIKRGGGGSGGGGSGGGGSQVQLVQSGAEVVKPGASVKLSCKASGYIFTSYYMYWVKQAPGQGLEWIGEINPSNGDTNFNEKFKSKATLTVDKSASTAYMELSSLRSEDTAVYYCTRSDGRNDMDSWGQGTLVTVSSGSTSGSGKPGSGEGSTKGDIVLTQSPGTLSLSPGETATLSCRASQSVGSNLAWYQQKPGQAPRLLIYGASTGATGVPARFSGSRSGTDFTLTITSLQPEDFATYYCQQYYSFLAKTFGQGTQLEIKRTVAAPSVFIFPPSDEQLKSGTASVVCLLNNFYPREAKVQWKVDNALQSGNSQESVTEQDSKDSTYSLSNTLTLSKADYEKHKVYACEVTHQGLSSPVTKSFNRGESGSTSGSGKPGSGEGSTKGDIQMTQSPSSLSASVGDRVTITCKASQNVGTNVAWYQQKPGKAPKALIYSASFLYSGVPYRFSGSGSGTDFTLTISSLQPEDFATYYCQQYNIYPLTFGQGTKVEIKR	5.3 nM
~0.5 nM	no binding (tested: 100 nM)	–	–	–	–	–	–	–	–	–	–	–	–	–	–	–	APB-A1, (anti-CD40L hu5c8 scFv)2-anti-HSA SL335 Fab (bispecific antibody, No Fc; also called (anti-hu5c8 scFv)2-SL335; (anti-CD40L scFv)2-anti-HSA Fab) heavy: DIVLTQSPATLSVSPGERATISCRASQRVSSSTYSYMHWYQQKPGQPPKLLIKYASNLESGVPARFSGSGSGTDFTLTISSVEPEDFATYYCQHSWEIPPTFGGGTKLEIKRGGGGSGGGGSGGGGSQVQLVQSGAEVVKPGASVKLSCKASGYIFTSYYMYWVKQAPGQGLEWIGEINPSNGDTNFNEKFKSKATLTVDKSASTAYMELSSLRSEDTAVYYCTRSDGRNDMDSWGQGTLVTVSSGGGGSGGGGSGGGGSQVQLVQSGGGPVKPGGSLRLSCAASGFMFRAYSMNWVRQAPGKGLEWVSSISSSGRYIHYADSVKGRFTISRDNAKNSLYLQMNSLRAEDTAVYYCARETVMAGKALDYWGQGTLVTVSSASTKGPSVFPLAPSSKSTSEGTAALGCLVKDYFPEPVTVSWNSGALTSGVHTFPAVLQSSGLYSLSSVVTVPSSSLGTQTYICNVNHKPSNTKVDKKVEPKSS light: DIVLTQSPATLSVSPGERATISCRASQRVSSSTYSYMHWYQQKPGQPPKLLIKYASNLESGVPARFSGSGSGTDFTLTISSVEPEDFATYYCQHSWEIPPTFGGGTKLEIKRGGGGSGGGGSGGGGSQVQLVQSGAEVVKPGASVKLSCKASGYIFTSYYMYWVKQAPGQGLEWIGEINPSNGDTNFNEKFKSKATLTVDKSASTAYMELSSLRSEDTAVYYCTRSDGRNDMDSWGQGTLVTVSSGSTSGSGKPGSGEGSTKGDIVLTQSPGTLSLSPGETATLSCRASQSVGSNLAWYQQKPGQAPRLLIYGASTGATGVPARFSGSRSGTDFTLTITSLQPEDFATYYCQQYYSFLAKTFGQGTQLEIKRTVAAPSVFIFPPSDEQLKSGTASVVCLLNNFYPREAKVQWKVDNALQSGNSQESVTEQDSKDSTYSLSNTLTLSKADYEKHKVYACEVTHQGLSSPVTKSFNRGES	–
